The term koff denotes a measure of how fast the partners let go of each other. The term Kd denotes the free concentration of one partner at which half of the binding sites on the other are occupied at equilibrium, for simple one-to-one binding.

The text below walks through data of patent publication US20210130452A1 (Merck KGaA, published 2021).

Several values for one entry are separate records, joined by “and”; a condition that tells them apart may be missing. Identical values can stand only once. Like-named read-outs stand apart in the source and are kept apart here.

For assay [1], the target named is T1, human IL-17F (human, UniProt Q96PD4 31-163).
T1 construct: made in Hek293 cells (GenBank AF384857); also called hIL-17F; hIL17F
T1 sequence: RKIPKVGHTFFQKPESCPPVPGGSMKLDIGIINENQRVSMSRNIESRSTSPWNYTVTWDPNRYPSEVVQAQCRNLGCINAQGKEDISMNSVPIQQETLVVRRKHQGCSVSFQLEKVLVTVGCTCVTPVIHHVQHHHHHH
Description: SPR (Biacore) off-rate. (In SPR one partner is held on a chip, and binding of the other changes the refractive index at the surface.)

For assay [2], the target named is T2, human IL-17A/F heterodimer (human, UniProt Q16552 24-155; Q96PD4 31-163, limits assumed).
T2 construct: bought, made in E. coli (R&D Systems 5194-IL/CF); also called hIL-17A/F; hIL17A/F
Kind of assay: SPR (Biacore) off-rate.
Target sequence in this assay (Q16552 24-155 limits assumed, chain 1 of 2, one chain of several): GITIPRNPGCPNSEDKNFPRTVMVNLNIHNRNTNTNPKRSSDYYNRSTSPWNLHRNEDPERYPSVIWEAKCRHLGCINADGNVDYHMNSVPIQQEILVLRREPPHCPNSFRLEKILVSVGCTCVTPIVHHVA

The target of assay [3] is T1, human IL-17F. Description: SPR (Biacore) off-rate. This is another data set of the same source.
In assay [4] the target is T2, human IL-17A/F heterodimer. Description: SPR (Biacore) off-rate. This is another data set of the same source.
Target sequence in this assay (Q16552 24-155 limits assumed, one chain of several): as the sequence (Q16552 24-155 limits assumed, chain 1 of 2, one chain of several) above
The target in assay [5] is T3, Cynomolgus monkey IL-17F (Cynomolgus monkey, UniProt G7P4V0 31-163).
T3 construct: also called cyno IL-17F; cIL-17F
T3 sequence: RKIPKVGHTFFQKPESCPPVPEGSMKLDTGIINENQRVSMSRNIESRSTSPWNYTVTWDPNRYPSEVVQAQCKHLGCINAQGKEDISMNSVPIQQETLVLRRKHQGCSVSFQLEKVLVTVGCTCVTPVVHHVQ
Kind of assay: SPR (Biacore) off-rate.

In assay [6] the target is T1, human IL-17F. Description: cell-based or functional assay.
In assay [7] the target is T2, human IL-17A/F heterodimer. Kind of assay: cell-based or functional assay.
Target sequence in this assay (Q16552 24-155 limits assumed, one chain of several): as the sequence (Q16552 24-155 limits assumed, chain 1 of 2, one chain of several) above
Assay [8] deals with T3, Cynomolgus monkey IL-17F. Description: cell-based or functional assay.
The target of assay [9] is T1, human IL-17F. Description: AlphaScreen IL-17F-IL-17RC; reference itself. (In Alpha technology, singlet oxygen from a donor bead excites a nearby acceptor bead.)
Assay [10] deals with T1, human IL-17F. Kind of assay: AlphaScreen IL-17F-IL-17RC; reference itself. The source holds these as a separate data set.
In assay [11] the target is T4, human IL-17A (human, UniProt Q16552 24-155).
T4 construct: secreted form made in Hek293 cells (GenBank U32659); also called hIL-17A; hIL17A
Description: SPR (Biacore) off-rate.
T4 sequence (Q16552 other isoform, or with tags, fused parts or gaps): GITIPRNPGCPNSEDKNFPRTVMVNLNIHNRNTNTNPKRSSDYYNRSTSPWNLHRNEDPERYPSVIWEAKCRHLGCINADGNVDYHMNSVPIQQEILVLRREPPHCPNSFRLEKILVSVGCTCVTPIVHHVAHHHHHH

The target of assay [12] is T1, human IL-17F. Description: SPR (Biacore) off-rate. The source holds these as a separate data set.
The target in assay [13] is T2, human IL-17A/F heterodimer. Kind of assay: SPR (Biacore) off-rate. This is another data set of the same source.
Target sequence in this assay (Q16552 24-155 limits assumed, one chain of several): as the sequence (Q16552 24-155 limits assumed, chain 1 of 2, one chain of several) above
Assay [14] addresses T4, human IL-17A. Description: SPR (Biacore) off-rate. The source holds these as a separate data set.
Assay [15] deals with T1, human IL-17F. Kind of assay: SPR (Biacore) off-rate. This is another data set of the same source.
Assay [16] has as its target T2, human IL-17A/F heterodimer. Description: SPR (Biacore) off-rate. This is another data set of the same source.
Target sequence in this assay (Q16552 24-155 limits assumed, one chain of several): as the sequence (Q16552 24-155 limits assumed, chain 1 of 2, one chain of several) above
The target in assay [17] is T5, Cynomolgus monkey IL-17A (Cynomolgus monkey, UniProt A0A2K5TTB0 24-155).
T5 construct: also called cyno IL-17A; cIL-17A
Kind of assay: SPR (Biacore) off-rate.
T5 sequence (A0A2K5TTB0 entry or part of it): as the sequence (Q16552 24-155 limits assumed, chain 1 of 2, one chain of several) above, with T3A, P8S, N34S, I77V, N78K, P104R counted along it

Assay [18] deals with T3, Cynomolgus monkey IL-17F. Kind of assay: SPR (Biacore) off-rate. This is another data set of the same source.
Assay [19] addresses T4, human IL-17A. Description: cell-based or functional assay.
The target in assay [20] is T1, human IL-17F. Kind of assay: cell-based or functional assay. The source holds these as a separate data set.
Assay [21] deals with T2, human IL-17A/F heterodimer. Kind of assay: cell-based or functional assay. The source holds these as a separate data set.
Target sequence in this assay (Q16552 24-155 limits assumed, one chain of several): as the sequence (Q16552 24-155 limits assumed, chain 1 of 2, one chain of several) above
The target of assay [22] is T3, Cynomolgus monkey IL-17F. Kind of assay: cell-based or functional assay. This is another data set of the same source.
Assay [23] concerns the target T4, human IL-17A. Description: AlphaScreen hIL-17A-IL-17RA; reference itself.
Assay [24] addresses T1, human IL-17F. Kind of assay: AlphaScreen hIL-17F-IL-17RC; reference itself.
Assay [25] addresses T4, human IL-17A. Kind of assay: AlphaScreen hIL-17A-IL-17RA; reference itself. The source holds these as a separate data set.
Assay [26] has as its target T1, human IL-17F. Kind of assay: AlphaScreen hIL-17F-IL-17RC; reference itself. The source holds these as a separate data set.
For assay [27], the target named is T6, human IL-17A (human, UniProt Q16552 24-155). Description: cell-based or functional assay. This is another data set of the same source.
T6 sequence (Q16552 other isoform, or with tags, fused parts or gaps): as the sequence (Q16552 other isoform, or with tags, fused parts or gaps) above
Assay [28] deals with T7, human IL-17F (human, UniProt Q96PD4 31-163).
T7 sequence: T1 sequence
Description: cell-based or functional assay. The source holds these as a separate data set.

The target in assay [29] is T6, human IL-17A. Description: cell-based or functional assay. This is another data set of the same source.
For assay [30], the target named is T7, human IL-17F. Description: cell-based or functional assay. The source holds these as a separate data set.
For assay [31], the target named is Cynomolgus monkey IL-17A (Cynomolgus monkey, UniProt A0A2K5TTB0 24-155). Kind of assay: cell-based or functional assay.
Target sequence in this assay (A0A2K5TTB0 entry or part of it): as the sequence (Q16552 24-155 limits assumed, chain 1 of 2, one chain of several) above, with T3A, P8S, N34S, I77V, N78K, P104R counted along it
Assay [32] deals with T7, human IL-17F. Kind of assay: KinExA, 600 pM Nanobody. On the technique in general: A kinetic exclusion assay measures how much of one partner remains free in solution.
For assay [33], the target named is T4, human IL-17A. Kind of assay: SPR (Biacore) off-rate. The source holds these as a separate data set.
Assay [34] has as its target T1, human IL-17F. Description: SPR (Biacore) off-rate. The source holds these as a separate data set.
Assay [35] addresses T2, human IL-17A/F heterodimer. Description: SPR (Biacore) off-rate. This is another data set of the same source.
Target sequence in this assay (Q16552 24-155 limits assumed, chain 1 of 2, one chain of several): as the sequence (Q16552 24-155 limits assumed, chain 1 of 2, one chain of several) above
The target of assay [36] is T4, human IL-17A. Kind of assay: SPR (Biacore) off-rate. This is another data set of the same source.
The target of assay [37] is T1, human IL-17F. Kind of assay: SPR (Biacore) off-rate. This is another data set of the same source.
Assay [38] addresses T2, human IL-17A/F heterodimer. Description: SPR (Biacore) off-rate. This is another data set of the same source.
Target sequence in this assay (Q16552 24-155 limits assumed, one chain of several): as the sequence (Q16552 24-155 limits assumed, chain 1 of 2, one chain of several) above
The target in assay [39] is T5, Cynomolgus monkey IL-17A. Description: SPR (Biacore) off-rate. This is another data set of the same source.
In assay [40] the target is T3, Cynomolgus monkey IL-17F. Kind of assay: SPR (Biacore) off-rate. The source holds these as a separate data set.
Assay [41] has as its target T4, human IL-17A. Kind of assay: cell-based or functional assay. This is another data set of the same source.
Assay [42] deals with T1, human IL-17F. Description: cell-based or functional assay. The source holds these as a separate data set.
Assay [43] addresses T2, human IL-17A/F heterodimer. Kind of assay: cell-based or functional assay. This is another data set of the same source.
The target in assay [44] is T3, Cynomolgus monkey IL-17F. Kind of assay: cell-based or functional assay. The source holds these as a separate data set.
Assay [45] has as its target T4, human IL-17A. Description: AlphaScreen hIL-17A-IL-17RA; reference itself. The source holds these as a separate data set.
Assay [46] concerns the target T1, human IL-17F. Description: AlphaScreen hIL-17F-IL-17RC; reference itself. The source holds these as a separate data set.
Assay [47] deals with T4, human IL-17A. Description: AlphaScreen hIL-17A-IL-17RA; reference itself. The source holds these as a separate data set.
In assay [48] the target is T1, human IL-17F. Description: AlphaScreen hIL-17F-IL-17RC; reference itself. The source holds these as a separate data set.
In assay [49] the target is T4, human IL-17A. Description: AlphaScreen hIL-17A-IL-17RA; vs IL17MS13E02.
Assay [50] concerns the target T1, human IL-17F. Kind of assay: AlphaScreen hIL-17F-IL-17RC; vs IL17MS13E02.

B1: IL17MS16A04 (VHH)
VHH: EVQLVESGGGLVQAGGSLRLSCAASGRTFSSYVVGWFRQAPGKEREFIGAISGSGDSIYYAVSEKDRFTISRDNGKNTLYLQMSSLKAEDTAVYYCTADQEFGYLRFGRSEYWGQGTQVTVSS
notes: Class 3 Nanobody, wild type; also called WT
On to B1, for which the koff is 0.000405 s⁻¹ in assay [1]; 0.0024 s⁻¹ in [2]; 0.000382 s⁻¹ and 0.00041 s⁻¹ in assay [3]; 0.00239 s⁻¹ and 0.0025 s⁻¹ in assay [4]; 0.000636 s⁻¹ in [5]. Moreover, in [6], the “IC50 cell based assay hIL-17F” value amounted to 28 nM. The “IC50 cell based assay hIL-17A/F” value in [7] was 8 nM. The “IC50 cell based assay cyno IL-17F” value in assay [8] came out at 7.3 nM. Moreover, the “IC50 fold difference vs WT” value in [9] and in assay [10] was 1 fold in each case.

B2: IL17MS13B03 (VHH)
VHH: EVQLVESGGGSVQAGDSLRLSCAASGRANSINWFGWFRQTPGKEREFVAGIRWSDAYTEYANSVKGRFTISRDNAKNTVDLQMDSLKPEDTAVYYCVLDLSTVRYWGQGTQVTVSS
notes: Class 4 Nanobody, wild type; also called WT
On to B2, for which the koff was 0.000131 s⁻¹ and 0.000208 s⁻¹ in assay [11]; 0.00792 s⁻¹ in assay [12]; 6.21e-05 to 0.000125 s⁻¹ in assay [13]; 0.000131 s⁻¹ and 0.000208 s⁻¹ in [14]; 0.00792 s⁻¹ in [15]; 6.21e-05 to 0.000125 s⁻¹ in assay [16]. The off-rate (koff) in assay [17] is 0.000114 s⁻¹; in assay [18], 0.00469 s⁻¹. Besides, the “IC50 cell based assay hIL17A” value in assay [19] is 1.34 nM. Also, in assay [20], the “IC50 cell based assay hIL17F” value is 35 nM. For the same molecule, the “IC50 cell based assay hIL17A/F” value in [21] turned out to be 4.32 nM. The “IC50 cell based assay cyno IL17F” value in assay [22] stood at 29 nM. The “IC50 fold difference compared to WT” value in assay [23], in [24], in assay [25] and in [26] was 1 fold throughout.

B3: 13E02-LH-Fc (Fc fusion, not shown: a dimerising Fc or GST)
chain: EVQLVESGGGLVQAGGSLRLSCAASGRTYDAMGWLRQAPGKEREFVAAISGSGDDTYYADSVKGRFTISKDNAGITMYLQMNSLKPEDTAVYYCATRRGLYYVWDSNDYENWGQGTQVTVSSEPKTPKPQPQPQPQPNPTTESKCPKCP
notes: bivalent Fc fusion from Hek-293-6E cells; also called MSB0010606
B3: the “IC50, hIL-17A induced IL-6, HT-1080, without HSA” value in assay [27] was determined as 0.19 nM. In [28], the “IC50, hIL-17F induced IL-6, HT-1080, without HSA” value came to 2.7 nM. In [29], the “Emax, hIL-17A induced IL-6, HT-1080, 100 µM HSA” value was found to be 98.5% and the “IC50, hIL-17A induced IL-6, HT-1080, 100 µM HSA” value is 0.85 nM. Further, in assay [30], the “IC50, hIL-17F induced IL-6, HT-1080, 100 µM HSA” value is 15.3 nM. Moreover, the “IC50, Cyno IL17A, HT-1080 bioassay” value in assay [31] is 0.19 nM. This molecule also displayed a Kd in assay [32] of 2.04 nM.

B4: IL17MS13E02 (VHH)
VHH: EVQLVESGGGLVQAGGSLRLSCAASGRTYDAMGWLRQAPGKEREFVAAISGSGDDTYYADSVKGRFTISKDNAGITMYLQMNSLKPEDTAVYYCATRRGLYYVWDSNDYENWGQGTQVTVSS
notes: as for B2
With B4, the koff in assay [33] was 0.000114 s⁻¹; in assay [34], 0.00223 s⁻¹; in assay [35], 3.97e-05 s⁻¹; in [36] it was 0.000114 s⁻¹; in assay [37] it was 0.00223 s⁻¹; in [38], 3.97e-05 s⁻¹. Also, the koff in [39] amounted to 0.000103 s⁻¹; in assay [40], 0.046 s⁻¹. Besides, the “IC50 cell based assay hIL-17A” value in assay [41] was 1.73 nM. For the same molecule, in assay [42], the “IC50 cell based assay hIL-17F” value is 44 nM. In [43], the “IC50 cell based assay hIL-17A/F” value was determined as 1.99 nM. For the same molecule, the “IC50 cell based assay cyno IL-17F” value in [44] was found to be 35 nM. In addition, the “IC50 fold difference vs WT” value in [45], in assay [46], in assay [47] and in assay [48] was 1 fold each time.

B5: IL17MS3072 (VHH)
VHH: DVQLVESGGGLVQPGGSLRLSCAASGRTYDALGWLRQAPGKEREFVAAISGSGDDTYYADSVKGRFTISRDNSKNTLYLQMNSLRPEDTAVYYCATRRGLYYVWDANDYENWGQGTLVTVSS
notes: variant of IL17MS13E02; Kabat numbering
Consider B5, for which the “IC50 cell based assay hIL-17A” value in assay [41] stood at 0.77 nM. Also, the “IC50 cell based assay hIL-17F” value in assay [42] worked out at 27 nM. Further, the “IC50 cell based assay hIL-17A/F” value in assay [43] was 3.5 nM. Besides, the “IC50 cell based assay cyno IL-17F” value in assay [44] was 25.2 nM. Besides, the “IC50 fold difference vs WT” value in [49] came out at 0.59 fold; in assay [50] it was 0.3 fold.
